Data set [1] concerns the molecule itself. The experiment in a line: dynamic light scattering; self-association as LCST-type phase separation; prf.GLFG_(52×12) diluted into 20 mM NaPi pH 6.8 with 75-1200 mM NaCl, temperature raised by 1 °C per min from 2 to 40 °C; van't Hoff analysis (Formula Set 1).
Data set [2] concerns the molecule itself. Put plainly: co-sedimentation; centrifugation assay of phase separation: FG domain diluted into 20 mM NaPi pH 6.8, 5 mM DTT, NaCl, concentration and temperature as in the figures; 21,130 × g, 30 min; pellet (FG phase) and supernatant by SDS-PAGE/Coomassie; saturation concentration = concentration left in the supernatant (Formula Set 2).

B1: prf.GLFG_(52×12) (domain or fragment)
chain: GGLFGGNTQPATGGLFGGNTQPATGGLFGGNTQPATGGLFGGNTQPATGGLFGGNTQPATGGLFGGNTQPATGGLFGGNTQPATGGLFGGNTQPATGGLFGGNTQPATGGLFGGNTQPATGGLFGGNTQPATGGLFGGNTQPATGGLFGGNTQPATGGLFGGNTQPATGGLFGGNTQPATGGLFGGNTQPATGGLFGGNTQPATGGLFGGNTQPATGGLFGGNTQPATGGLFGGNTQPATGGLFGGNTQPATGGLFGGNTQPATGGLFGGNTQPATGGLFGGNTQPATGGLFGGNTQPATGGLFGGNTQPATGGLFGGNTQPATGGLFGGNTQPATGGLFGGNTQPATGGLFGGNTQPATGGLFGGNTQPATGGLFGGNTQPATGGLFGGNTQPATGGLFGGNTQPATGGLFGGNTQPATGGLFGGNTQPATGGLFGGNTQPATGGLFGGNTQPATGGLFGGNTQPATGGLFGGNTQPATGGLFGGNTQPATGGLFGGNTQPATGGLFGGNTQPATGGLFGGNTQPATGGLFGGNTQPATGGLFGGNTQPATGGLFGGNTQPATGGLFGGNTQPATGGLFGGNTQPATGGLFGGNTQPATGGLFGGNTQPATGGLFGGNTQPAT
notes: Engineered after the MacNup98A FG domain, GLEBS deleted; also called perfectly repeated FG domain; N = 52; source: E. coli NEB Express, extracted from inclusion bodies, purified (Ni chromatography, SUMO protease cleavage, lyophilized); not shown: histidine tag with a SUMO cleavage site, N-terminal, cleaved
As for B1, the “dH of phase separation when [NaCl] = 0 (van't Hoff)” value in data set [1] was 24.4 kcal/mol.

B2: prf.GLFG_(70×12) (domain or fragment)
chain: GGLFGGNTQPATGGLFGGNTQPATGGLFGGNTQPATGGLFGGNTQPATGGLFGGNTQPATGGLFGGNTQPATGGLFGGNTQPATGGLFGGNTQPATGGLFGGNTQPATGGLFGGNTQPATGGLFGGNTQPATGGLFGGNTQPATGGLFGGNTQPATGGLFGGNTQPATGGLFGGNTQPATGGLFGGNTQPATGGLFGGNTQPATGGLFGGNTQPATGGLFGGNTQPATGGLFGGNTQPATGGLFGGNTQPATGGLFGGNTQPATGGLFGGNTQPATGGLFGGNTQPATGGLFGGNTQPATGGLFGGNTQPATGGLFGGNTQPATGGLFGGNTQPATGGLFGGNTQPATGGLFGGNTQPATGGLFGGNTQPATGGLFGGNTQPATGGLFGGNTQPATGGLFGGNTQPATGGLFGGNTQPATGGLFGGNTQPATGGLFGGNTQPATGGLFGGNTQPATGGLFGGNTQPATGGLFGGNTQPATGGLFGGNTQPATGGLFGGNTQPATGGLFGGNTQPATGGLFGGNTQPATGGLFGGNTQPATGGLFGGNTQPATGGLFGGNTQPATGGLFGGNTQPATGGLFGGNTQPATGGLFGGNTQPATGGLFGGNTQPATGGLFGGNTQPATGGLFGGNTQPATGGLFGGNTQPATGGLFGGNTQPATGGLFGGNTQPATGGLFGGNTQPATGGLFGGNTQPATGGLFGGNTQPATGGLFGGNTQPATGGLFGGNTQPATGGLFGGNTQPATGGLFGGNTQPATGGLFGGNTQPATGGLFGGNTQPATGGLFGGNTQPATGGLFGGNTQPATGGLFGGNTQPATGGLFGGNTQPATGGLFGGNTQPAT
notes: also called N = 70; not shown: histidine tag with a SUMO cleavage site, N-terminal, cleaved
With B2, the binding result in data set [2] is given as “binds”.

B3: prf.GLFG_(44×12) (domain or fragment)
chain: GGLFGGNTQPATGGLFGGNTQPATGGLFGGNTQPATGGLFGGNTQPATGGLFGGNTQPATGGLFGGNTQPATGGLFGGNTQPATGGLFGGNTQPATGGLFGGNTQPATGGLFGGNTQPATGGLFGGNTQPATGGLFGGNTQPATGGLFGGNTQPATGGLFGGNTQPATGGLFGGNTQPATGGLFGGNTQPATGGLFGGNTQPATGGLFGGNTQPATGGLFGGNTQPATGGLFGGNTQPATGGLFGGNTQPATGGLFGGNTQPATGGLFGGNTQPATGGLFGGNTQPATGGLFGGNTQPATGGLFGGNTQPATGGLFGGNTQPATGGLFGGNTQPATGGLFGGNTQPATGGLFGGNTQPATGGLFGGNTQPATGGLFGGNTQPATGGLFGGNTQPATGGLFGGNTQPATGGLFGGNTQPATGGLFGGNTQPATGGLFGGNTQPATGGLFGGNTQPATGGLFGGNTQPATGGLFGGNTQPATGGLFGGNTQPATGGLFGGNTQPATGGLFGGNTQPATGGLFGGNTQPAT
notes: also called N = 44; not shown: histidine tag with a SUMO cleavage site, N-terminal, cleaved
As for B3, the binding result in data set [2] is on record as “binds”.

B4: prf.GLFG_(26×12) (domain or fragment)
chain: GGLFGGNTQPATGGLFGGNTQPATGGLFGGNTQPATGGLFGGNTQPATGGLFGGNTQPATGGLFGGNTQPATGGLFGGNTQPATGGLFGGNTQPATGGLFGGNTQPATGGLFGGNTQPATGGLFGGNTQPATGGLFGGNTQPATGGLFGGNTQPATGGLFGGNTQPATGGLFGGNTQPATGGLFGGNTQPATGGLFGGNTQPATGGLFGGNTQPATGGLFGGNTQPATGGLFGGNTQPATGGLFGGNTQPATGGLFGGNTQPATGGLFGGNTQPATGGLFGGNTQPATGGLFGGNTQPATGGLFGGNTQPAT
notes: also called N = 26; 26× repeats; source: E. coli NEB Express, soluble fraction, purified (Ni(II) chelate column, on-column bdSENP1 cleavage, lyophilized); not shown: histidine tag with a SUMO cleavage site, N-terminal, cleaved
B4: the binding result in data set [2] is “binds”.

B5: prf.GLFG_(37×12) (domain or fragment)
chain: GGLFGGNTQPATGGLFGGNTQPATGGLFGGNTQPATGGLFGGNTQPATGGLFGGNTQPATGGLFGGNTQPATGGLFGGNTQPATGGLFGGNTQPATGGLFGGNTQPATGGLFGGNTQPATGGLFGGNTQPATGGLFGGNTQPATGGLFGGNTQPATGGLFGGNTQPATGGLFGGNTQPATGGLFGGNTQPATGGLFGGNTQPATGGLFGGNTQPATGGLFGGNTQPATGGLFGGNTQPATGGLFGGNTQPATGGLFGGNTQPATGGLFGGNTQPATGGLFGGNTQPATGGLFGGNTQPATGGLFGGNTQPATGGLFGGNTQPATGGLFGGNTQPATGGLFGGNTQPATGGLFGGNTQPATGGLFGGNTQPATGGLFGGNTQPATGGLFGGNTQPATGGLFGGNTQPATGGLFGGNTQPATGGLFGGNTQPATGGLFGGNTQPAT
notes: also called N = 37; 37× repeats; not shown: histidine tag with a SUMO cleavage site, N-terminal, cleaved
Take B5: in data set [2], the binding result is on record as “binds”.

The values above are taken from paper PMC9579204, “A simple thermodynamic description of phase separation of Nup98 FG domains” (Nature Communications, 2022).
